This is an account of results in patent US20200268901A1.

In assay [1] the target is hCD73-his (full length extracellular domain of human CD73, residues 26-546, C-terminal polyhistidine tag) (human) (UniProt P21589). The experiment in a line: SEC-MALS, hCD73-his:Fab 1:2 (4:8 uM); peak at ~20.1 min, 7.7 % of UV. (In general: SEC sorts molecules by how far they enter the pores of the column.)
Assay [2] deals with N-hCD73-his (N-terminal domain of human CD73, residues 26-336) (human) (UniProt P21589). In words: SEC-MALS, N-hCD73-his:Fab 1:1 (8:8 uM); peak at ~17.4 min, 95.3 % of UV.
Chain of N-hCD73-his (N-terminal domain of human CD73, residues 26-336) (human) (P21589 26-336 limits assumed): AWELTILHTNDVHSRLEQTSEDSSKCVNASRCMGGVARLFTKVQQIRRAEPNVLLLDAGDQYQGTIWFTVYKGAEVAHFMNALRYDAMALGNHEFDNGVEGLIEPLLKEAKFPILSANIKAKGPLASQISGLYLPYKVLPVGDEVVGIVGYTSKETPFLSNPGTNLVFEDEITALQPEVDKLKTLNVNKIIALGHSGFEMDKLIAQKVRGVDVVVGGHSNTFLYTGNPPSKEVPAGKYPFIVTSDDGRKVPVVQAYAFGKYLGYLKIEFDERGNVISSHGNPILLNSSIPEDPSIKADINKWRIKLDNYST
For assay [3] the target is unchanged. In words: SEC-MALS, N-hCD73-his:Fab 1:1 (8:8 uM); peak at ~20.0 min, 4.7 % of UV.
The target of assay [4] is hCD73-his (full length extracellular domain of human CD73, residues 26-546, C-terminal polyhistidine tag) (human) (UniProt P21589). The experiment in a line: SEC-MALS, hCD73-his:Fab 1:2 (4:8 uM); peak at ~12.6 min, 0.9 % of UV.
The target is the same in assay [5]. In words: SEC-MALS, hCD73-his:Fab 1:2 (4:8 uM); peak at ~16.8 min, 0.8 % of UV.
Assay [6] has the same target. The experiment in a line: DLS, hCD73-his:Fab 1:2 (4:8 uM); Rh SD 0.1, %Pd 15.1 (SD 4.3), %Mass 100.0 (SD 0.0).
Assay [7] has the same target. In words: SEC-MALS, hCD73-his:Fab 1:2 (4:8 uM); peak at ~14.7 min, 90.7 % of UV.
Assay [8] deals with N-hCD73-his (N-terminal domain of human CD73, residues 26-336) (human) (UniProt P21589). In words: DLS, N-hCD73-his:Fab 1:1 (8:8 uM); Rh SD 0.1, %Pd 12.6 (SD 4.7), %Mass 100.0 (SD 0.0).
The target is the same in assay [9]. In words: SEC-MALS, N-hCD73:mAb 1:1 as printed (5:[…]); peak at ~14.7 min, 88.3 % of UV.
The target is the same in assay [10]. The experiment in a line: SEC-MALS, N-hCD73:mAb 1:1 as printed (5:[…]); peak at ~15.9 min, […] of UV.
For assay [11], the target named is hCD73-his (full length extracellular domain of human CD73, residues 26-546, C-terminal polyhistidine tag) (human) (UniProt P21589). The experiment in a line: SEC-MALS, hCD73:mAb 1:0.5 (2.5:1.25 uM); peak at ~13.4 min, 15.8 % of UV.
Assay [12] has the same target. The experiment in a line: SEC-MALS, hCD73:mAb 1:4 (2.5:10 uM); peak at ~15.3 min, 1.2 % of UV.
The target is the same in assay [13]. The experiment in a line: SEC-MALS, hCD73:mAb 1:0.25 (2.5:0.625 uM); peak at ~17.1 min, 36.4 % of UV.
In assay [14] the target is N-hCD73-his (N-terminal domain of human CD73, residues 26-336) (human) (UniProt P21589). The experiment in a line: DLS, N-hCD73:mAb 1:1 as printed (5:[…]); Rh SD 0.3, %Pd 13.9 (SD 7.0), %Mass 100.0 (SD 0.0).
Assay [15] deals with hCD73-his (full length extracellular domain of human CD73, residues 26-546, C-terminal polyhistidine tag) (human) (UniProt P21589). The experiment in a line: SEC-MALS, hCD73:mAb 1:1 (2.5:[…]); peak at ~17.1 min, […] of UV.
Assay [16] shares this target. In words: SEC-MALS, hCD73:mAb 1:0.5 (2.5:1.25 uM); peak at ~17.1 min, 13.4 % of UV.
Assay [17] shares this target. In words: SEC-MALS, hCD73:mAb 1:2 (2.5:5 uM); peak at ~17.1 min, 29.3 % of UV.
The target is the same in assay [18]. The experiment in a line: SEC-MALS, hCD73:mAb 1:2 (2.5:5 uM); peak at ~13.4 min, 17.7 % of UV.
The target is the same in assay [19]. In words: SEC-MALS, hCD73:mAb 1:0.25 (2.5:0.625 uM); peak at ~13.4 min, 21.6 % of UV.
Assay [20] has the same target. In words: DLS, hCD73:mAb 1:0.5 (2.5:1.25 uM); Rh SD 1.0, %Pd 31.7 (SD 8.8), %Mass 62.6 (SD 25.8).
The target is the same in assay [21]. In words: DLS, hCD73:mAb 1:1 (2.5:[…]); Rh SD 1.0, %Pd 25.1 (SD 2.1), %Mass 22.3 (SD 4.9).
Assay [22] has the same target. In words: SEC-MALS, hCD73:mAb 1:1 (2.5:[…]); peak at ~11.5 min, 95.3 % of UV.
For assay [23], the target named is N-hCD73-his (N-terminal domain of human CD73, residues 26-336) (human) (UniProt P21589). In words: SEC-MALS, N-hCD73:mAb 1:1 as printed (5:[…]); peak at ~13.9 min, 0.7 % of UV.
For assay [24], the target named is hCD73-his (full length extracellular domain of human CD73, residues 26-546, C-terminal polyhistidine tag) (human) (UniProt P21589). The experiment in a line: DLS, hCD73:mAb 1:2 (2.5:5 uM); Rh SD 0.1, %Pd 31.3 (SD 5.5), %Mass 68.7 (SD 25.8).
Assay [25] shares this target. In words: SEC-MALS, hCD73:mAb 1:4 (2.5:10 uM); peak at ~13.4 min, 16.2 % of UV.
For assay [26] the target is unchanged. In words: DLS, hCD73:mAb 1:4 (2.5:10 uM); Rh SD 0.9, %Pd 42.9 (SD 3.5), %Mass 90.2 (SD 17.5).
For assay [27] the target is unchanged. In words: SEC-MALS, hCD73:mAb 1:1 (2.5:[…]); peak at ~13.4 min, 1.9 % of UV.
Assay [28] shares this target. The experiment in a line: SEC-MALS, hCD73:mAb 1:4 (2.5:10 uM); peak at ~17.1 min, 58.6 % of UV.
The target in assay [29] is N-hCD73-his (N-terminal domain of human CD73, residues 26-336) (human) (UniProt P21589). In words: SEC-MALS, N-hCD73:mAb 1:1 as printed (5:[…]); peak at ~17.0 min, […] of UV.
The target of assay [30] is hCD73-his (full length extracellular domain of human CD73, residues 26-546, C-terminal polyhistidine tag) (human) (UniProt P21589). In words: SEC-MALS, hCD73:mAb 1:0.5 (2.5:1.25 uM); peak at ~11.7 min, 71.9 % of UV.
Assay [31] shares this target. The experiment in a line: SEC-MALS, hCD73:mAb 1:2 (2.5:5 uM); peak at ~15.3 min, 0.6 % of UV.
Assay [32] has the same target. In words: SEC-MALS, hCD73:mAb 1:0.25 (2.5:0.625 uM); peak at ~11.8 min, 42.0 % of UV.
The target is the same in assay [33]. In words: SEC-MALS, hCD73:mAb 1:2 (2.5:5 uM); peak at ~11.7 min, 52.5 % of UV.
The target is the same in assay [34]. In words: SEC-MALS, hCD73:mAb 1:4 (2.5:10 uM); peak at ~11.7 min, […] of UV.
Assay [35] has the same target. In words: DLS, hCD73:mAb 1:0.25 (2.5:0.625 uM); Rh SD 1.7, %Pd 46.5 (SD 5.9), %Mass 99.9 (SD 0.1).

Chain of hCD73-his (full length extracellular domain of human CD73, residues 26-546, C-terminal polyhistidine tag) (human) (P21589 26-546 limits assumed): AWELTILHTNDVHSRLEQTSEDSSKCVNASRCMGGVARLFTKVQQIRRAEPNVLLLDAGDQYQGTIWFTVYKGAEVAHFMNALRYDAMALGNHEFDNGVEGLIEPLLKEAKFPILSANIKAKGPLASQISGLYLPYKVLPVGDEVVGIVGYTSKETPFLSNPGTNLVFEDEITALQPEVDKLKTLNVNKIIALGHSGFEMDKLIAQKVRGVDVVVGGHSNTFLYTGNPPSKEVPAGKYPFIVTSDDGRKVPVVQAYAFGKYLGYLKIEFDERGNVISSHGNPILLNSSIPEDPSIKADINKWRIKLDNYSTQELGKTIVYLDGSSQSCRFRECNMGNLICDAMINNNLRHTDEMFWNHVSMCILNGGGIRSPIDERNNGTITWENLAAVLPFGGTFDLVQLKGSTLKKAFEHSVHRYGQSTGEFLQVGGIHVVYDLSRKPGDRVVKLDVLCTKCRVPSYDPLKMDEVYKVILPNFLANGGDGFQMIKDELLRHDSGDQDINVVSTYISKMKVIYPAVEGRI

B1: 11F11-Fab (Fab, V domains shown, part only)
VH: QVQLVESGGGVVQPGRSLRLSCATSGFTFSNYGMHWVRQAPGKGLEWVAVILYDGSNKYYPDSVKGRFTISRDNSKNTLYLQMNSLRAEDTAVYYCARGGSSWYPDSFDIWGQGTMVTVSS
VL: DIQMTQSPSSLSASVGDRVTITCRASQGISSWLAWYQQKPEKAPKSLIYAASSLQSGVPSRFSGSGSGTDFTLTISSLQPEDFATYYCQQYNSYPLTFGGGTKVEIKR
modifications: CH1 of Fab heavy chain not stated
As for B1, the MW (kDa) Peak 4 in assay [1] was 40 kDa. The MW (kDa) Peak 1 in [2] was found to be 84 kDa; in assay [4] it was 300 kDa. The MW (kDa) Peak 2 in assay [3] turned out to be 44 kDa; in [7], 310 kDa. The molecule also had an MW (kDa) Peak 3 in assay [5] of 85 kDa. For the same molecule, the Rh (DLS) in assay [6] turned out to be 6.4 nm; in assay [8] it was 4.2 nm.

B2: CD73.4-hybrid (antibody, from a related filing, V domains shown, part only)
VH: QVQLVESGGGVVQPGRSLRLSCAASGFTFSNYGMHWVRQAPGKGLEWVAVILYDGSNKYYPDSVKGRFTISRDNSKNTLYLQMNSLRAEDTAVYYCARGGSSWYPDSFDIWGQGTMVTVSS
VL: DIQMTQSPSSLSASVGDRVTITCRASQGISSWLAWYQQKPEKAPKSLIYAASSLQSGVPSRFSGSGSGTDFTLTISSLQPEDFATYYCQQYNSYPLTFGGGTKVEIKR
Turning to B2, the MW (kDa) Peak 2 in assay [9] came out at 210 kDa; in assay [11], 540 kDa; in assay [18], 500 kDa; in assay [19], 520 kDa; in [25], 500 kDa; in assay [27], 1000 kDa. Further, the MW (kDa) Peak 3 in [10] was 180 kDa; in assay [12], 200 kDa; in assay [13], 120 kDa; in assay [15], 530 kDa; in assay [16], 130 kDa; in assay [31], 220 kDa. Besides, the Rh (DLS) in assay [14] came to 6.7 nm; in assay [20], 17.5 nm; in [21], 29.9 nm; in [24], 14.4 nm; in assay [26], 11.4 nm; in assay [35], 13.2 nm. Further, the MW (kDa) Peak 4 came out at 140 kDa in assay [17], 140 kDa in [28] and 150 kDa in [29]. Moreover, the MW (kDa) Peak 1 in assay [22] was 3300 kDa; in assay [23] it was 390 kDa; in assay [30] it was 1900 kDa; in assay [32] it was 1200 kDa; in [33], 1700 kDa; in assay [34], 1300 kDa.
